{"source": "patent US20090275047A1", "about": "(published 2009)", "proteins": {"B1": {"name": "human soluble adenylate cyclase catalytic domain, construct solAC-2056 (M1-V469 with non-cleavable C-terminal His6 tag) (enzyme)", "chain": "MNTPKEEFQDWPIVRIAAHLPDLIVYGHFSPERPFMDYFDGVLMFVDISGFTAMTEKFSSAMYMDRGAEQLVEILNYHISAIVEKVLIFGGDILKFAGDALLALWRVERKQLKNIITVVIKCSLEIHGLFETQEWEEGLDIRVKIGLAAGHISMLVFGDETHSHFLVIGQAVDDVRLAQNMAQMNDVILSPNCWQLCDRSMIEIESVPDQRAVKVNFLKPPPNFNFDEFFTKCTTFMHYYPSGEHKNLLRLACTLKPDPELEMSLQKYVMESILKQIDNKQLQGYLSELRPVTIVFVNLMFEDQDKAEEIGPAIQDAYMHITSVLKIFQGQINKVFMFDKGCSFLCVFGFPGEKVPDELTHALECAMDIFDFCSQVHKIQTVSIGVASGIVFCGIVGHTVRHEYTVIGQKVNLAARMMMYYPGIVTCDSVTYNGSNLPAYFFKELPKKVMKGVADSGPLYQYWGRTEKVHHHHHH", "modifications": "possible acetylation of the N-terminus at Met1 (electron density peak, not modelled)", "notes": "Expressed in Hi 5 insect cells and crystallised in space group P63; The protein-protein contact recorded is between symmetry-related copies of this molecule in the crystal; also called construct 2056; solAC catalytic domain"}}, "target": "the molecule itself", "test": "X-ray crystal structure; crystal lattice contact between symmetry-related molecules", "data": [{"protein": "B1", "values": [{"measurement": "binding result", "result": "binds"}]}]}
